One test deals with CBX2 (UniProt Q14781). The test can be described thus: co-IP with anti-Myc, anti-HA immunoblot. To be noted: reference: HA-USP27X wild type; sites S135.
The next test addresses T1, His-Myc-CBX2 (human, UniProt Q14781 1-532).
T1 construct: Chromobox protein homolog 2 (CBX2), human; the His-Myc construct is named only in the pull-down methods; the cloning of a His-Myc construct is not described; also called Purified Myc-CBX2
T1 sequence (looked up): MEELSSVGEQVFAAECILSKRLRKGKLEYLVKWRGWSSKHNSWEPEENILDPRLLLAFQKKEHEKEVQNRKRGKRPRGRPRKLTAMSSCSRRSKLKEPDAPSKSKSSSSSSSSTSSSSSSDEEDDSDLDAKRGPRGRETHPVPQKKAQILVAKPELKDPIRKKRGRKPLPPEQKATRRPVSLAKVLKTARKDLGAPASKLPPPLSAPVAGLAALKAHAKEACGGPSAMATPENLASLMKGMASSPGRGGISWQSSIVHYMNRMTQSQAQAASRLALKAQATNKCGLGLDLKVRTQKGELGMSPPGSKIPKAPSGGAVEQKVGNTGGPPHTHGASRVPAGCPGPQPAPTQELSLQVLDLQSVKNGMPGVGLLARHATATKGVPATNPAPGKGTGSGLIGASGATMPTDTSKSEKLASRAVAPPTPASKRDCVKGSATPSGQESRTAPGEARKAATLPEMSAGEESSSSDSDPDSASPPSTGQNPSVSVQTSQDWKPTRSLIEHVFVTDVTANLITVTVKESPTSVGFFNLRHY
The test is described as follows: pull-down; GST-USP27X bound to glutathione-Sepharose 4B beads incubated with His-Myc-CBX2 for 2 h at 4 °C; retained proteins immunoblotted. The following applies: both partners purified. For orientation: In western blotting, separated proteins are transferred to a membrane and probed.

In the case of “USP27X (from UniProt A6NNY8) HA-USP27X S135A”, the “binding against the reference” value with CBX2 was “weaker”.

B1: GST-USP27X (enzyme, human, UniProt A6NNY8 1-438, looked up)
chain: MCKDYVYDKDIEQIAKEEQGEALKLQASTSTEVSHQQCSVPGLGEKFPTWETTKPELELLGHNPRRRRITSSFTIGLRGLINLGNTCFMNCIVQALTHTPILRDFFLSDRHRCEMPSPELCLVCEMSSLFRELYSGNPSPHVPYKLLHLVWIHARHLAGYRQQDAHEFLIAALDVLHRHCKGDDVGKAANNPNHCNCIIDQIFTGGLQSDVTCQACHGVSTTIDPCWDISLDLPGSCTSFWPMSPGRESSVNGESHIPGITTLTDCLRRFTRPEHLGSSAKIKCGSCQSYQESTKQLTMNKLPVVACFHFKRFEHSAKQRRKITTYISFPLELDMTPFMASSKESRMNGQLQLPTNSGNNENKYSLFAVVNHQGTLESGHYTSFIRHHKDQWFKCDDAVITKASIKDVLDSEGYLLFYHKQVLEHESEKVKEMNTQAY
notes: ubiquitin-specific peptidase 27X (USP27X), human cDNA cloned into pGEX-1λT (plasmids section) or pGEX-4T-1 (pull-down section); also called GST-USP27X-WT; Recombinant GST-USP27X; source: E. coli BL21, purified (GST beads)
With B1, the binding result in the test with His-Myc-CBX2 is “binds”.

(Values after publication PMC10687032, “Phosphorylation of USP27X by GSK3β maintains the stability and oncogenic functions of CBX2” (Cell Death & Disease, 2023).)
